For assay [1], the target named is DNMT3BΔ214 (residues 215–853) D817G (human) (UniProt Q9UBC3).
For assay [2] the target is unchanged. The experiment in a line: AUC; sedimentation velocity, 40,000 rpm, 15 h, 20 C; 20 mM Tris-HCl pH 8.0, 300 mM NaCl, 1 mM TCEP, 5% glycerol; WT DNMT3BΔ214-3L at 2.5, 5.0 and 6.25 uM, mutant complexes at 5 uM; c(s) model in SEDFIT.
Assay [3] concerns the target DNMT3BΔ214 (residues 215–853) H814R (human) (UniProt Q9UBC3).
For assay [4] the target is unchanged. The experiment in a line: AUC; sedimentation velocity, 40,000 rpm, 15 h, 20 C; 20 mM Tris-HCl pH 8.0, 300 mM NaCl, 1 mM TCEP, 5% glycerol; WT DNMT3BΔ214-3L at 2.5, 5.0 and 6.25 uM, mutant complexes at 5 uM; c(s) model in SEDFIT.
The target of assay [5] is DNMT3BΔ214 (residues 215–853) V818M (human) (UniProt Q9UBC3).
Assay [6] shares this target. The assay is described as follows: AUC; sedimentation velocity, 40,000 rpm, 15 h, 20 C; 20 mM Tris-HCl pH 8.0, 300 mM NaCl, 1 mM TCEP, 5% glycerol; WT DNMT3BΔ214-3L at 2.5, 5.0 and 6.25 uM, mutant complexes at 5 uM; c(s) model in SEDFIT.

“DNMT3BΔ214 (residues 215–853) D817G (from UniProt Q9UBC3 215-853) (domain or fragment)”: in assay [1], the MTase activity of the DNMT3BΔ214-3L complex (MTase-Glo, 0.2 uM complex, 36-bp dsDNA), percent of the WT complex was 5.43 % of WT. Moreover, the percent of the population as hetero-tetramer (168 kDa peak, DNMT3B dimerised) in assay [2] was 4.9%.
As for “DNMT3BΔ214 (residues 215–853) H814R (from UniProt Q9UBC3 215-853) (domain or fragment)”, the MTase activity of the DNMT3BΔ214-3L complex (MTase-Glo, 0.2 uM complex, 36-bp dsDNA), percent of the WT complex in assay [3] is 1.09 % of WT. Besides, the percent of the population as hetero-tetramer (168 kDa peak, DNMT3B dimerised) in assay [4] came to 1.5%.
For “DNMT3BΔ214 (residues 215–853) V818M (from UniProt Q9UBC3 215-853) (domain or fragment)”, the MTase activity of the DNMT3BΔ214-3L complex (MTase-Glo, 0.2 uM complex, 36-bp dsDNA), percent of the WT complex in assay [5] was 35.9 % of WT. Moreover, in assay [6], the percent of the population as hetero-tetramer (168 kDa peak, DNMT3B dimerised) is 28.3%.
